{"source": "patent US20030129193A1", "about": "(priority 2001, published 2003)", "molecules": {"B1": {"name": "Factor VIIa: recombinant human Factor VIIa (protein)", "light": "ANAFLEELRPGSLERECKEEQCSFEEAREIFKDAERTKLFWISYSDGDQCASSPCQNGGSCKDQLQSYICFCLPAFEGRNCETHKDDQLICVNENGGCEQYCSDHTGTKRSCRCHEGYSLLADGVSCTPTVEYPCGKIPILEKRNASKPQGR", "heavy": "IVGGKVCPKGECPWQVLLLVNGAQLCGGTLINTIWVVSAAHCFDKIKNWRNLIAVLGEHDLSEHDGDEQSRRVAQVIIPSTYVPGTTNHDIALLRLHQPVVLTDHVVPLCLPERTFSERTLAFVRFSLVSGWGQLLDRGATALELMVLNVPRLMTQDCLQQSRKVGDSPNITEYMFCAGYSDGSKDSCKGDSGGPHATHYRGTWYLTGIVSWGQGCATVGHFGVYTRVSQYIEWLQKLMRSEPRPGVLLRAPFP"}, "B2": {"name": "tTF219 (G164A): tTF219 with amino acid 164 (Gly) replaced by Ala (protein)", "chain": "GSGTTNTVAAYNLTWKSTNFKTILEWEPKPVNQVYTVQISTKSGDWKSKCFYTTDTECDLTDEIVKDVKQTYLARVFSYPAGNVESTGSAGEPLYENSPEFTPYLETNLGQPTIQSFEQVGTKVNVTVEDERTLVRRNNTFLSLRDVFGKDLIYTLYYWKSSSSAKKTAKTNTNEFLIDVDKGENYCFSVQAVIPSRTVNRKSTDSPVECMGQEKGEFRE"}, "B3": {"name": "tTF219 (W158R) (protein)", "chain": "GSGTTNTVAAYNLTWKSTNFKTILEWEPKPVNQVYTVQISTKSGDWKSKCFYTTDTECDLTDEIVKDVKQTYLARVFSYPAGNVESTGSAGEPLYENSPEFTPYLETNLGQPTIQSFEQVGTKVNVTVEDERTLVRRNNTFLSLRDVFGKDLIYTLYYRKSSSSGKKTAKTNTNEFLIDVDKGENYCFSVQAVIPSRTVNRKSTDSPVECMGQEKGEFRE"}, "B4": {"name": "IgG-H6—N′-cys-tTF219: one molecule of IgG linked via SMPT to one or two molecules of tTF (conjugate)", "chain": "HHHHHHAMALVPRGSCGTTNTVAAYNLTWKSTNFKTILEWEPKPVNQVYTVQISTKSGDWKSKCFYTTDTECDLTDEIVKDVKQTYLARVFSYPAGNVESTGSAGEPLYENSPEFTPYLETNLGQPTIQSFEQVGTKVNVTVEDERTLVRRNNTFLSLRDVFGKDLIYTLYYWKSSSSGKKTAKTNTNEFLIDVDKGENYCFSVQAVIPSRTVNRKSTDSPVECMGQEKGEFRE", "modifications": "left off: large carriers"}, "B5": {"name": "Fab′-H6—N′-cys-tTF219: Fab′-SS-tTF conjugate (conjugate)", "chain": "HHHHHHAMALVPRGSCGTTNTVAAYNLTWKSTNFKTILEWEPKPVNQVYTVQISTKSGDWKSKCFYTTDTECDLTDEIVKDVKQTYLARVFSYPAGNVESTGSAGEPLYENSPEFTPYLETNLGQPTIQSFEQVGTKVNVTVEDERTLVRRNNTFLSLRDVFGKDLIYTLYYWKSSSSGKKTAKTNTNEFLIDVDKGENYCFSVQAVIPSRTVNRKSTDSPVECMGQEKGEFRE", "modifications": "left off: another chain or arm of the molecule; large carriers"}, "B6": {"name": "tTF221-cys-C′: tTF with Ile-Phe-Cys after amino acid 219, without (His)6 tag (protein)", "chain": "GSGTTNTVAAYNLTWKSTNFKTILEWEPKPVNQVYTVQISTKSGDWKSKCFYTTDTECDLTDEIVKDVKQTYLARVFSYPAGNVESTGSAGEPLYENSPEFTPYLETNLGQPTIQSFEQVGTKVNVTVEDERTLVRRNNTFLSLRDVFGKDLIYTLYYWKSSSSGKKTAKTNTNEFLIDVDKGENYCFSVQAVIPSRTVNRKSTDSPVECMGQEKGEFREIFC"}, "B7": {"name": "H6-tTF220-cys-C′: tTF219 mutated to encode Ile-Cys after amino acid 219, (His)6 tag (protein)", "chain": "HHHHHHAMALVPRGSGTTNTVAAYNLTWKSTNFKTILEWEPKPVNQVYTVQISTKSGDWKSKCFYTTDTECDLTDEIVKDVKQTYLARVFSYPAGNVESTGSAGEPLYENSPEFTPYLETNLGQPTIQSFEQVGTKVNVTVEDERTLVRRNNTFLSLRDVFGKDLIYTLYYWKSSSSGKKTAKTNTNEFLIDVDKGENYCFSVQAVIPSRTVNRKSTDSPVECMGQEKGEFRE"}, "B8": {"name": "H6-tTF221-cys-C′ dimer: chemically conjugated disulfide dimer of H6-tTF221-cys-C′ (protein)", "chain": "HHHHHHAMALVPRGSGTTNTVAAYNLTWKSTNFKTILEWEPKPVNQVYTVQISTKSGDWKSKCFYTTDTECDLTDEIVKDVKQTYLARVFSYPAGNVESTGSAGEPLYENSPEFTPYLETNLGQPTIQSFEQVGTKVNVTVEDERTLVRRNNTFLSLRDVFGKDLIYTLYYWKSSSSGKKTAKTNTNEFLIDVDKGENYCFSVQAVIPSRTVNRKSTDSPVECMGQEKGEFRE"}, "B9": {"name": "tTF220-cys-C′: tTF with Ile-Cys after amino acid 219, without (His)6 tag (protein)", "chain": "GSGTTNTVAAYNLTWKSTNFKTILEWEPKPVNQVYTVQISTKSGDWKSKCFYTTDTECDLTDEIVKDVKQTYLARVFSYPAGNVESTGSAGEPLYENSPEFTPYLETNLGQPTIQSFEQVGTKVNVTVEDERTLVRRNNTFLSLRDVFGKDLIYTLYYWKSSSSGKKTAKTNTNEFLIDVDKGENYCFSVQAVIPSRTVNRKSTDSPVECMGQEKGEFREIC"}, "B10": {"name": "H6-tTF219-cys-C′: (His)6 tTF219 with a Cys after amino acid 219 (protein)", "chain": "HHHHHHAMALVPRGSGTTNTVAAYNLTWKSTNFKTILEWEPKPVNQVYTVQISTKSGDWKSKCFYTTDTECDLTDEIVKVKQTYLARVFSYPAGNVESTGSAGEPLYENSPEFTPYLETNLGQPTIQSFEQVGTKVNVTVEDRTLVRRNNTFLSLRDVFGKDLIYTLYYWKSSSSGKKTAKTNTNEFLIDVDKGENYCFSVQAVIPSRTVNRKSTDSPVECMGQEKGEFREC"}}, "key": {"[1]": {"target": "recombinant, depyrogenated truncated Tissue Factor (amino acids 1-219), secreted into the periplasm of E. coli from vector pswc7 (human) (UniProt P13726)", "experiment": "cell-based or functional assay"}, "[2]": {"tested_on": "Mouse bEnd.3 endothelial cells", "experiment": "PS induction by H2O2", "type": "cell-based", "protocol": "Mouse bEnd.3 endothelial cells were seeded at an initial density of 50,000 cells/well. Twenty-fours later cells were incubated with increasing concentrations of H2O2 (from 10 μM to 500 μM) for 1 hour at 37° C. or left untreated. At the end of the incubation, cells were washed 3 times with PBS containing 0.2% gelatin and fixed with 0.25% glutaraldehyde. Identical wells were either stained with anti-PS IgM or trypsinized and evaluated for viability by the Trypan Blue exclusion test. For the anti-PS staining, after blocking with 2% gelatin for 10 min., cells were incubated with 2 μg/ml of anti-PS antibody, followed by detection with anti-mouse IgM-HRP conjugate."}, "[3]": {"tested_on": "tissue factor on HUVEC cells", "experiment": "FACS analysis of tissue factor expression", "type": "cell-based, human", "details": "6 h at 37°; TNFα 500 U/ml, LPS 10 μg/ml, VEGF 1 nM", "protocol": "To analyze tissue factor expression on the surface of endothelial cells, HUVEC cells were incubated with TNFα (500 U/ml), LPS (10 μg/ml) or vascular endothelial growth factor (VEGF, 1 nM) alone or in combination for 6 h at 37°. Cells were then detached and stained for surface expression of human tissue factor with a sheep-anti-human tissue factor antibody (Haemochrom, Essen, Germany) and an appropriate FITC-conjugated secondary antibody. Fluorescent cells were detected on a flow cytometer (Becton Dickinson. San Jose, Calif.)."}, "[4]": {"tested_on": "HT29 human colorectal carcinoma", "experiment": "Anti-tumor effects and tumor necrosis, HT29", "type": "in vivo, BALB/c nu/nu mice", "details": "small HT29 tumors, single agents, 24 hours"}, "[5]": {"tested_on": "citrated mouse or human plasma", "experiment": "In vitro coagulation assay on A20 cells", "type": "cell-based", "details": "for coagulation times versus tTF219 and Factor VIIa at the same concentrations: Factor VIIa at 1 nM or greater; for reduction of coagulation-inducing activity relative to monomer / tTF219: less active; for concentration at which plasma coagulated in 50 seconds: localized on A20 cells via B21-2/10H10"}, "factor X": {"tested_on": "factor X", "experiment": "Factor Xa production assay on A20 cells", "type": "cell-based", "details": "Factors II, VII and IX present"}}}
{"molecule": "Factor VIIa (Sigma) (enzyme)", "values": [{"measurement": "Factor Xa generation due to Factor VIIa production on bEnd3 cells; stimulation: 0.5 µg/ml LPS; incubation: tTF-VIIa", "setting": "[1]", "result": 6.25, "unit": "nkat S2222"}, {"measurement": "Factor Xa generation due to Factor VIIa production on bEnd3 cells; stimulation: 0.5 µg/ml LPS; tTF-VIIa minus sTF", "setting": "[1]", "result": 3.25, "unit": "nkat S2222"}, {"measurement": "Factor Xa generation due to Factor VIIa production on bEnd3 cells; stimulation: TNFα; incubation: tTF-VIIa", "setting": "[1]", "result": 2.93, "unit": "nkat S2222"}, {"measurement": "Factor Xa generation due to Factor VIIa production on bEnd3 cells; stimulation: TNFα; tTF-VIIa minus sTF", "setting": "[1]", "result": 1.02, "unit": "nkat S2222"}, {"measurement": "Factor Xa generation due to Factor VIIa production on bEnd3 cells; stimulation: medium; incubation: tTF-VIIa", "setting": "[1]", "result": 0.95, "unit": "nkat S2222"}, {"measurement": "Factor Xa generation due to Factor VIIa production on bEnd3 cells; stimulation: medium; tTF-VIIa minus sTF", "setting": "[1]", "result": 0.25, "unit": "nkat S2222"}, {"measurement": "Factor Xa generation on bEnd3 cells; stimulation: 0.5 µg/ml LPS; incubation: tTF-VIIa", "setting": "[1]", "result": 3.35, "unit": "nkat S2222"}, {"measurement": "Factor Xa generation on bEnd3 cells; stimulation: 0.5 µg/ml LPS; tTF-VIIa minus sTF (background subtracted)", "setting": "[1]", "result": 1.35, "unit": "nkat S2222"}, {"measurement": "Factor Xa generation on bEnd3 cells; stimulation: 10 µg/ml LPS; incubation: tTF-VIIa", "setting": "[1]", "result": 4.46, "unit": "nkat S2222"}, {"measurement": "Factor Xa generation on bEnd3 cells; stimulation: 10 µg/ml LPS; tTF-VIIa minus sTF (background subtracted)", "setting": "[1]", "result": 1.55, "unit": "nkat S2222"}, {"measurement": "Factor Xa generation on bEnd3 cells; stimulation: TNFα; incubation: tTF-VIIa", "setting": "[1]", "result": 1.51, "unit": "nkat S2222"}, {"measurement": "Factor Xa generation on bEnd3 cells; stimulation: TNFα; tTF-VIIa minus sTF (background subtracted)", "setting": "[1]", "result": 0.84, "unit": "nkat S2222"}, {"measurement": "Factor Xa generation on bEnd3 cells; stimulation: medium; incubation: tTF-VIIa", "setting": "[1]", "result": 0.56, "unit": "nkat S2222"}, {"measurement": "Factor Xa generation on bEnd3 cells; stimulation: medium; tTF-VIIa minus sTF (background subtracted)", "setting": "[1]", "result": 0.16, "unit": "nkat S2222"}]}
{"molecule": "OO", "note": "[H2O2]", "values": [{"measurement": "cells with PS at the cell surface", "setting": "[2]; concentrations as low as 20 μM", "result": "about 50%"}, {"measurement": "cells with PS translocation", "setting": "[2]; concentrations higher than 100 μM, 1 hour", "result": "~90", "unit": "%"}, {"measurement": "cell viability", "setting": "[2]; low levels of H2O2 (lower than 100 μM)", "result": 95, "unit": "%"}]}
{"molecule": "VEGF", "values": [{"measurement": "tissue factor expression on the surface of HUVEC", "setting": "[3]", "result": "upregulated tissue factor expression"}]}
{"molecule": "B1", "values": [{"measurement": "necrosis in tumor sections", "setting": "[4]", "result": "some necrosis"}]}
{"molecule": "B2", "values": [{"measurement": "necrosis in tumor sections", "setting": "[4]", "result": "some necrosis"}, {"measurement": "coagulation times versus tTF219 and Factor VIIa at the same concentrations", "setting": "[5]", "result": "only marginally slower coagulation times"}]}
{"molecule": "B3", "values": [{"measurement": "coagulation times versus tTF219 and Factor VIIa at the same concentrations", "setting": "[5]", "result": "only marginally slower coagulation times"}]}
{"molecule": "B4", "values": [{"measurement": "reduction of coagulation-inducing activity relative to monomer / tTF219", "setting": "[5]", "result": 5, "unit": "fold"}, {"measurement": "concentration at which plasma coagulated in 50 seconds", "setting": "[5]", "result": 5000, "unit": "pM"}, {"measurement": "Xa formation, less active than H6—N′-cys-tTF219", "setting": "factor X", "result": 2, "unit": "fold"}]}
{"molecule": "B5", "values": [{"measurement": "Xa formation relative to H6—N′-cys-tTF219", "setting": "factor X", "result": "as active as H6—N′-cys-tTF219 itself"}]}
{"molecule": "B6", "values": [{"measurement": "concentration at which plasma coagulated in 50 seconds", "setting": "[5]", "result": 500, "unit": "pM"}]}
{"molecule": "B7", "values": [{"measurement": "concentration at which plasma coagulated in 50 seconds", "setting": "[5]", "result": 500, "unit": "pM"}]}
{"molecule": "B8", "values": [{"measurement": "reduction of coagulation-inducing activity relative to monomer / tTF219", "setting": "[5]", "result": 4, "unit": "fold"}]}
{"molecule": "B9", "values": [{"measurement": "concentration at which plasma coagulated in 50 seconds", "setting": "[5]", "result": 500, "unit": "pM"}]}
{"molecule": "B10", "values": [{"measurement": "concentration at which plasma coagulated in 50 seconds", "setting": "[5]", "result": 3000, "unit": "pM"}]}
